The values that follow come from publication PMC3937676, “Dynamics of Inter-heavy Chain Interactions in Human Immunoglobulin G (IgG) Subclasses Studied by Kinetic Fab Arm Exchange^([image sbox.jpg])” (The Journal of Biological Chemistry, 2014).

Data set [1] deals with G3*01 Fc fragment (CH2CH3 of IgG3 allele IGHG3*01, G3m(b*), with an IgG4 hinge) (human). The data set can be described thus: FRET or BRET; real-time half-molecule exchange of Fc fragments; 4 μg/ml Fc-488 and Fc-594 in PBS-P, each 1 h at 37 °C with 3 mM DTT, then mixed in equal volumes, 37 °C (IgG4-Fc-V397M/K392N at 10 μg/ml final); kobs taken as the CH3-CH3 dissociation rate (dimer to single chains). Background: BRET reads energy transfer from a luciferase to a nearby fluorophore.

For data set [2], the target named is human IgG1 antibody, half-molecule (heavy chain plus light chain) after reduction of the hinge disulfide bonds (human). The data set can be described thus: FRET or BRET; real-time Fab arm (half-molecule) exchange of whole IgG; equimolar DyLight488- and DyLight594-labelled antibody, inter-heavy chain disulfide bonds fully reduced with DTT, 37 °C; first-order exponential fit; kobs taken as the CH3-CH3 dissociation rate (dimer to half-molecules).

In data set [3] the target is human IgG2 antibody, half-molecule (heavy chain plus light chain) after reduction of the hinge disulfide bonds (human). Described as above.
Data set [4] has the same target. Nature of the data set: SEC; fluorescence-assisted HPLC; reduced (10 mM DTT) and alkylated (iodoacetamide) IgG, serial 4-fold dilutions 0.001-300 nM half-molecules with a small fixed dose of the DyLight-488 labelled equivalent, PBS with 0.1 mg/ml certolizumab pegol and 0.02% Tween 20, 37 °C up to 3 days; Superdex 200; dimer to half-molecules.
Data set [5] addresses human IgG3 antibody (IGHG3*01), half-molecule (heavy chain plus light chain) after reduction of the hinge disulfide bonds (human). The data set can be described thus: FRET or BRET; real-time Fab arm (half-molecule) exchange of whole IgG; equimolar DyLight488- and DyLight594-labelled antibody, inter-heavy chain disulfide bonds fully reduced with DTT, 37 °C; first-order exponential fit; kobs taken as the CH3-CH3 dissociation rate (dimer to half-molecules).

The target of data set [6] is human IgG4 antibody, half-molecule (heavy chain plus light chain) after reduction of the hinge disulfide bonds (human). Described as above.
Data set [7] concerns the molecule itself. Nature of the data set: FRET or BRET; real-time half-molecule exchange of Fc fragments; 4 μg/ml Fc-488 and Fc-594 in PBS-P, each 1 h at 37 °C with 3 mM DTT, then mixed in equal volumes, 37 °C (IgG4-Fc-V397M/K392N at 10 μg/ml final); kobs taken as the CH3-CH3 dissociation rate (dimer to single chains).
Data set [8] concerns the molecule itself. Nature of the data set: FRET or BRET; equilibrium; 2-fold dilutions of equimolar Fc-488 and Fc-594, 2 h at 37 °C with 3 mM DTT; F620/F588 against total half-molecules; homodimerization model; dimer to single chains.

Some results are limits rather than exact numbers.

In the case of “G3*01 Fc fragment (CH2CH3 of IgG3 allele IGHG3*01, G3m(b*), with an IgG4 hinge) (domain or fragment)”, the fold faster dissociation than G3*06 in data set [1] was > 10 fold. As usually defined, the koff is a measure of how fast the partners let go of each other. For “human IgG1 antibody, half-molecule (heavy chain plus light chain) after reduction of the hinge disulfide bonds”, in data set [2], the half-life of dissociation (t1/2) is 384 h and the koff was 5e-07 s⁻¹. By Kd is commonly meant a measure of binding affinity in units of concentration. With “human IgG2 antibody, half-molecule (heavy chain plus light chain) after reduction of the hinge disulfide bonds”, in data set [3], the half-life of dissociation (t1/2) came out at 6.5 h and the off-rate constant (koff) amounted to 3e-05 s⁻¹. In addition, the Kd in data set [4] came out at 23 pM. As to “human IgG3 antibody (IGHG3*01), half-molecule (heavy chain plus light chain) after reduction of the hinge disulfide bonds”, in data set [5], the half-life of dissociation (t1/2) is 0.467 h and the off-rate constant (koff) was found to be 0.0004 s⁻¹. As for “human IgG4 antibody, half-molecule (heavy chain plus light chain) after reduction of the hinge disulfide bonds”, in data set [6], the half-life of dissociation (t1/2) came to 6 min and the koff amounted to 0.0018 s⁻¹.

B1: G3*03 Fc fragment (CH2CH3 of IgG3 allele IGHG3*03, G3m(c3c5*), with an IgG4 hinge) (domain or fragment)
chain: ESKYGPPCPSCPAPELLGGPSVFLFPPKPKDTLMISRTPEVTCVVVDVSHEDPEVQFKWYVDGVEVHNAKTKPREEQYNSTFRVVSVLTVLHQDWLNGKEYKCKVSNKALPAPIEKTISKTKGQPREPQVYTLPPSREEMTKNQVSLTCLVKGFYPSDIAVEWESSGQPENNYNTTPPVLDSDGSFFLYSRLTVDKSRWQEGNVFSCSVMHEALHNRFTQKSLSLSPGK
modifications: DyLight 488 or DyLight 594 amine reactive dye (average degree of labeling ~2 for Fc fragments); hinge disulfide bonds reduced with DTT
Turning to B1, the “fold faster dissociation than IgG4 (m17)” value in data set [7] is ~15 fold.

B2: IgG4-V397M/K392N Fc fragment (domain or fragment)
chain: ESKYGPPCPSCPAPEFLGGPSVFLFPPKPKDTLMISRTPEVTCVVVDVSQEDPEVQFNWYVDGVEVHNAKTKPREEQFNSTYRVVSVLTVLHQDWLNGKEYKCKVSNKGLPSSIEKTISKAKGQPREPQVYTLPPSQEEMTKNQVSLTCLVKGFYPSDIAVEWESNGQPENNYNTTPPMLDSDGSFFLYSRLTVDKSRWQEGNVFSCSVMHEALHNHYTQKSLSLSLGK
modifications: DyLight 488 or DyLight 594 amine reactive dye (average degree of labeling ~2 for Fc fragments); hinge disulfide bonds reduced with DTT
Turning to B2, the koff in data set [7] is 0.16 s⁻¹. For the same molecule, the affinity in data set [8], expressed as Kd, was 2.3 µM.

B3: G2-M397V Fc fragment (CH2CH3 of IgG2 with M397V, IgG4 hinge) (domain or fragment)
chain: ESKYGPPCPSCPAPPVAGPSVFLFPPKPKDTLMISRTPEVTCVVVDVSHEDPEVQFNWYVDGVEVHNAKTKPREEQFNSTFRVVSVLTVVHQDWLNGKEYKCKVSNKGLPAPIEKTISKTKGQPREPQVYTLPPSREEMTKNQVSLTCLVKGFYPSDISVEWESNGQPENNYKTTPPVLDSDGSFFLYSKLTVDKSRWQQGNVFSCSVMHEALHNHYTQKSLSLSPGK
modifications: DyLight 488 or DyLight 594 amine reactive dye (average degree of labeling ~2 for Fc fragments); hinge disulfide bonds reduced with DTT
Turning to B3, in data set [7], the off-rate (koff) was < 1e-06 s⁻¹.
